From article PMC5395944, “Structural basis of inhibition of lipid-linked oligosaccharide flippase PglK by a conformational nanobody” (Scientific Reports, 2017)
Several values for one entry are separate records, joined by “and”; a condition that tells them apart may be missing. Equal entries are not always repeated.

Experiments:
PglK-E510Q = molecular target: T1, PglK-E510Q (C. jejuni, UniProt Q0P9C4, E510Q); assay: crystal structure; conditions: both partners purified
T1 construct: also called PglK mutant E510Q; source: E. coli BL21-Gold (DE3), purified from membranes in detergent (NiNTA, size exclusion chromatography)

[1] = molecular target: PglK wild type (lipid-linked oligosaccharide flippase, ABC transporter) from Campylobacter jejuni (C. jejuni, UniProt Q0P9C4); assay: cross-linking; 0.1% glutaraldehyde for 30 min, then high-mass MALDI mass spectrometry; PglK 18 μM and Nb 18 μM (1:2 PglK-homodimer:Nb), 10 mM HEPES pH 7.5, 100 mM NaCl, 0.016% LMNG; without nucleotides or with 5 mM MgCl2 and 5 mM ADP or ATP; conditions: both partners purified

B1: Nb87 (inhibitory conformational nanobody against PglK) (VHH)
VHH: QVQLQESGGGLVQPGGSLRLSCAASGFTFSSYAMSWVRQAPGKGLEWVSAITSGGGSTSYSDAVKGRFTISRDNAKNTLYLQMNSLKPEDTAVYYCAKGYVVDFLDLAEYDSWGQGTQVTVSS
notes: source: E. coli WK6, periplasmic extract, purified (NiNTA)
stoichiometry N (PglK-E510Q): 1 Nb87 per PglK homodimer | stoichiometry N [1]: 1 Nb87 per PglK homodimer and 2 Nb87 per PglK homodimer
